This is an account of results in US20220403048A1 (CANCER RESEARCH TECHNOLOGY, published 2022).

The target of assay [1] is T1, biotinylated recombinant human trimeric ARG2 enzyme (Avi-huARG2-His10) (human, UniProt P78540 23-354, biotinylated).
T1 construct: also called avi-Arg2-His10; bio-ARG2
T1 chain: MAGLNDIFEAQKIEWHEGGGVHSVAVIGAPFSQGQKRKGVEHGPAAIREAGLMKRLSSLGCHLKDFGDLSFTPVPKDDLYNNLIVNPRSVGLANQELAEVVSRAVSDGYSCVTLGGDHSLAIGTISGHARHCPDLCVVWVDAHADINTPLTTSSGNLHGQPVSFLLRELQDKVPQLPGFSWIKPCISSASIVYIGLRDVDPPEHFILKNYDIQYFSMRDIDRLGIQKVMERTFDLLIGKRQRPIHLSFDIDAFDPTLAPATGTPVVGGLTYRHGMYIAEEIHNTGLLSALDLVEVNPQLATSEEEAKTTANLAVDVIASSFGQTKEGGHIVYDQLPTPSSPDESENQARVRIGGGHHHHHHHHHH
Nature of the assay: BLI (OctetRED) extended assay, bio-ARG2 on streptavidin, Fab as analyte, 1:1 fit. On the procedure: (§1) The affinities of the second-generation antibodies to human ARG2 were measured on the OctetRED system. A screening assay which stably captures His-tagged ARG2 as the ligand on an anti-His surface was utilised to screen the second-generation candidates as Fabs at an analyte range of 1.8 to 120 nM, with an association time of 5 minutes and a dissociation time of 10 minutes. Sensors were regenerated using 10 mM glycine pH 1.5 after each cycle. Based on this assay, six candidates with estimated affinities in the sub-nanomolar range were identified, and they were further profiled using an extended assay which is more suitable for antibodies of high affinities. In the extended assay, the association and dissociation times were extended to 10 and 40 minutes respectively, using a lower Fab analyte titration range of 0.47 to 30 nM, on a streptavidin surface which captures bio-ARG2 as the ligand. The sensorgrams were reference subtracted and fitted to the 1:1 binding model to estimate their binding affinities using the Octet analysis software.

Assay [2] concerns the target T2, biotinylated recombinant human trimeric ARG1 enzyme (Avi-huARG1-His10) (human, UniProt P05089 1-322, biotinylated in HTRF and streptavidin BLI assays).
T2 construct: also called Human ARG1; recombinant ARG1
T2 sequence: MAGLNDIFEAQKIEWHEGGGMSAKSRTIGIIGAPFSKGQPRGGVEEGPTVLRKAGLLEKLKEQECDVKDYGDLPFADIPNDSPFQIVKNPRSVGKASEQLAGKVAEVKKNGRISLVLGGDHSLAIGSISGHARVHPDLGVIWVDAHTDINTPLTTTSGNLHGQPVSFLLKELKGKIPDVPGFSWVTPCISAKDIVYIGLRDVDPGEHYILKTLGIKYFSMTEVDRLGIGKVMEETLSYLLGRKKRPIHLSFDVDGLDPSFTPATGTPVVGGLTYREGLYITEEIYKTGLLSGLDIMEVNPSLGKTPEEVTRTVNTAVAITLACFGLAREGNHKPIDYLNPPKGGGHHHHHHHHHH
The experiment in a line: BLI (OctetRED), His-tagged ligand on anti-His surface.

Assay [3] addresses T3, biotinylated recombinant cynomolgus monkey trimeric ARG2 enzyme (Avi-cynoARG2-His10) (cynomolgus monkey, UniProt P78540 23-354 (human entry), biotinylated).
T3 construct: also called cynomolgus ARG2
T3 chain: T1 chain with A189P, R231Q, H273E, K325R, D333G
Nature of the assay: BLI (OctetRED) extended assay, biotinylated cyno ARG2 on streptavidin, Fab as analyte, 1:1 fit. On the procedure:
as §1
The affinities of some of these antibodies to cynomolgus ARG2 were determined using the same assay, and the derived kinetic parameters are shown in Table 21.

Assay [4] addresses T4, THP-1 lysate derived human trimeric ARG2 (human, UniProt P78540 23-354, limits assumed).
T4 sequence (looked up): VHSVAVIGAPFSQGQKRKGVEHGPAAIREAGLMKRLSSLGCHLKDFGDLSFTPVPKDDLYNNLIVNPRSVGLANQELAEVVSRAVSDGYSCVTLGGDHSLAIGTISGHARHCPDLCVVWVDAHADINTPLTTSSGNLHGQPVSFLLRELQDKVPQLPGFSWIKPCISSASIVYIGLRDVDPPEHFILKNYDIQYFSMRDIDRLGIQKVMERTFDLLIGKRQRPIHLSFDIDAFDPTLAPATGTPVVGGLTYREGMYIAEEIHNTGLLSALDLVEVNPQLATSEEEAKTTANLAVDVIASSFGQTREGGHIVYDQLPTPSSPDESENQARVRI
Nature of the assay: cell-based or functional assay.

Assay [5] deals with T5, recombinant human monomeric ARG2 (human, UniProt P78540 23-354).
T5 sequence (looked up): T4 sequence (looked up) with E253Q
The experiment in a line: cell-based or functional assay.

The target of assay [6] is T6, recombinant human trimeric ARG2 enzyme (construct not given) (human, UniProt P78540 23-354).
T6 sequence (looked up): T4 sequence (looked up)
Nature of the assay: cell-based or functional assay.

The target of assay [7] is T4, THP-1 lysate derived human trimeric ARG2. Nature of the assay: cell-based or functional assay. The source holds these as a separate data set.
In assay [8] the target is T2, biotinylated recombinant human trimeric …. Nature of the assay: HTRF direct binding assay, biotinylated recombinant human trimeric ARG1.
Assay [9] has as its target T3, biotinylated recombinant cynomolgus …. Nature of the assay: HTRF direct binding assay, biotinylated recombinant cynomolgus trimeric ARG2, streptavidin cryptate and anti-c-myc-XL665, Delta F %. Background: TR-FRET usually uses a lanthanide donor and a delayed reading to cut background.

Changes are numbered by the printed parent chain.

B1: C0021177 Fab (Fab, V domains shown)
VH: EVQLLESGGGLVQPGGSLRLSCAASGFTFRYEVAAWVRQAPGKGLEWVSAISGPAPKGYYADSVKGRFTISRDNSKNTLYLQMNSLRAEDTAVYYCARLRADLGLYMDLWGRGTLVTVSS
VL: QSELTQPPTASAAPGQKVTISCSGSSSNIGNHYVSWYQQLPGTAPKLLIYDTTVLSSGIPDRFSGSKSGTSATLGITGLQTGDEADYYCGTWDELTSNLVFGGGTKLTVL
notes: Human Fab
By Kd is commonly meant the equilibrium constant for the complex coming apart. For orientation: koff means a measure of how fast the partners let go of each other. In general, kon refers to the second-order rate constant of association. Regarding B1, in assay [1], the dissociation constant (Kd) was 0.173 nM, the koff was 3.51e-05 s⁻¹ and the kon worked out at 202000 M⁻¹ s⁻¹. In addition, in assay [2], the binding result was “no binding (tested: up to 120 nM Fab)”. For the same molecule, in assay [3], the dissociation constant Kd is 0.0754 nM, the off-rate (koff) came out at 3.12e-05 s⁻¹ and the kon came out at 414000 M⁻¹ s⁻¹.

B2: C0021180 Fab (Fab, V domains shown)
VH: B1 VH with A55I
VL: QSVLTQPPTVSAAPGRKVTISCSGSSSNIGDHHVSWYQQLPGAAPKLLIYDTDHMASGIPDRFSGSRSGTSATLGITGLQTGDEADYYCGTWDSSLSALVFGGGTKLTVL
notes: Human Fab
Consider B2, for which, in assay [1], the Kd came out at 0.437 nM, the koff amounted to 0.000122 s⁻¹ and the on-rate (kon) came to 278000 M⁻¹ s⁻¹. Besides, the binding result in [2] is reported as “no binding (tested: up to 120 nM Fab)”. For the same molecule, in assay [3], the Kd was determined as 0.353 nM, the koff turned out to be 0.000135 s⁻¹ and the kon worked out at 381000 M⁻¹ s⁻¹.

B3: C0020187 recombinant human IgG1 (antibody, V domains shown)
VH: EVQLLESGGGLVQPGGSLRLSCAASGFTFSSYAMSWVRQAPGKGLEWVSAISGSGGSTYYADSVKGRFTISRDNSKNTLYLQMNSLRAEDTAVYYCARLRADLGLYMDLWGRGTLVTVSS
VL: QSVLTQPPSVSAAPGQKVTISCSGSSSNIGNHYVSWYQQLPGTAPKLLIYDNSERPSGIPDRFSGSKSGTSATLGITGLQTGDEADYYCGTWDSSLSALVFGGGTKLTVL
B3: in assay [4], the “THP-1 ARG2 EIA IC50” value amounted to 649 nM. Besides, the “IC50 (read off the curve)” value in assay [5] is roughly 4 nM.

B4: C0021158-fgl2 recombinant human IgG1 (antibody, V domains shown)
VH: B1 VH with A55I
VL: B3 VL with S53A, P56T, S57A, S94E, S95L, L96T, A98N
With B4, the “THP-1 ARG2 EIA IC50” value in assay [4] stood at 3 nM.

B5: C0021158 recombinant human IgG1 (antibody, V domains shown)
VH: B1 VH with A55I
VL: B3 VL with P56T, S57A, I59V, S94E, S95L, L96T, A98N
On to B5, for which the “THP-1 ARG2 EIA IC50” value in [4] was determined as 2.3 nM. In [6], the “EC50, In Presence of rhARG2 (T cell proliferation)” value was determined as 157 nM and the “Maximum % Proliferation, In Presence of rhARG2” value is 90%. The “THP-1 lysate ARG2 EIA IC50” value in assay [7] came to 5.36 nM.

B6: C0020065 recombinant human IgG1 (antibody, V domains shown)
VH: GVNLRESGGGVVQPGRSLRLSCAASGFTFSSYAMHWVRQAPGKGLEWVAVISYDGSNKYYVDSVKGRFTISRDNSKNTLYLQMNSLRAEDTAVYYCARDSSQLWFDYWGRGTLVTVSS
VL: QSVVTQPPSVSGAPGQRVTISCTGSSSNIGTGYDVHWYQQLPGTAPKLLIYGNSNRPSGVPDRFSGSKSGTSASLAITGLQAEDEADYYCQSYDSSLSGSVVFGGGTQLTVL
In the case of B6, the “IC50 (read off the curve)” value in assay [5] is roughly 6 nM.

B7: C0020065 scFv (scFv, V domains shown)
VH: B6 VH
VL: B6 VL
notes: c-myc tagged scFv
For B7, the binding result in assay [8] is “no binding (tested: log M -6 (1e-6 M))”; in [9], “binds”.
